In US20240261333A1, “NOVEL TARGETS FOR ENHANCING ANTI-TUMOR IMMUNITY” (THE BROAD INSTITUTE, INC., priority 2021, published 2024):

How the values were obtained:
RPS4X (human) = RPS4X (human) (UniProt P62701); experiment: co-IP with control IgG, mass spectrometry; lysate of cells with C-FLAG B3GNT2
GAPDH (human) = GAPDH (human) (UniProt P04406); experiment: as above
MAGT1 (human) = MAGT1 (human) (UniProt Q9H0U3); experiment: as above
EPRS (human) = EPRS (human) (UniProt P07814); experiment: as above
CCT2 (human) = CCT2 (human) (UniProt P78371); experiment: as above
IPO13 (human) = IPO13 (human) (UniProt O94829); experiment: as above
RARS (human) = RARS (human) (UniProt P54136); experiment: as above
GANAB (human) = GANAB (human) (UniProt Q14697); experiment: as above
HSPD1 (human) = HSPD1 (human) (UniProt P10809); experiment: as above
CCT7 (human) = CCT7 (human) (UniProt Q99832); experiment: as above
GALNT2 (human) = GALNT2 (human) (UniProt Q10471); experiment: as above
PJA2 (human) = PJA2 (human) (UniProt O43164); experiment: as above
PSMD4 (human) = PSMD4 (human) (UniProt P55036); experiment: as above
RPL26 (human) = RPL26 (human) (UniProt P61254); experiment: as above
MARS (human) = MARS (human) (UniProt P56192); experiment: as above
PIGR (human) = PIGR (human) (UniProt P01833); experiment: as above
CD70 (human) = CD70 (human) (UniProt P32970); experiment: as above
RPL32 (human) = RPL32 (human) (UniProt P62910); experiment: as above
SDF4 (human) = SDF4 (human) (UniProt Q9BRK5); experiment: as above
MYO1C (human) = MYO1C (human) (UniProt O00159); experiment: as above
ARHGEF2 (human) = ARHGEF2 (human) (UniProt Q92974); experiment: as above
HADHA (human) = HADHA (human) (UniProt P40939); experiment: as above
SLC27A4 (human) = SLC27A4 (human) (UniProt Q6P1M0); experiment: as above
MSN (human) = MSN (human) (UniProt P26038); experiment: as above
SPRR1A (human) = SPRR1A (human) (UniProt P35321); experiment: as above
CTHRC1 (human) = CTHRC1 (human) (UniProt Q96CG8); experiment: as above
ZC3HAV1 (human) = ZC3HAV1 (human) (UniProt Q7Z2W4); experiment: as above
RPL9 (human) = RPL9 (human) (UniProt P32969); experiment: as above
CDSN = CDSN (UniProt Q15517); experiment: co-IP, anti-FLAG, N-FLAG B3GNT2 cell lysate, mass spectrometry
ITGB3 = ITGB3 (UniProt P05106); experiment: as above
TAGLN = TAGLN (UniProt Q01995); experiment: as above
DNAJA2 = DNAJA2 (UniProt O60884); experiment: as above
RPL35 = RPL35 (UniProt P42766); experiment: as above
MTDH = MTDH (UniProt Q86UE4); experiment: as above
EMD = EMD (UniProt P50402); experiment: as above
TMEM59 = TMEM59 (UniProt Q9BXS4); experiment: as above
PBXIP1 = PBXIP1 (UniProt Q96AQ6); experiment: as above
RPL19 = RPL19 (UniProt P84098); experiment: as above

CTHRC1 (human), sequence (Q96CG8 other isoform, or with tags, fused parts or gaps limits assumed): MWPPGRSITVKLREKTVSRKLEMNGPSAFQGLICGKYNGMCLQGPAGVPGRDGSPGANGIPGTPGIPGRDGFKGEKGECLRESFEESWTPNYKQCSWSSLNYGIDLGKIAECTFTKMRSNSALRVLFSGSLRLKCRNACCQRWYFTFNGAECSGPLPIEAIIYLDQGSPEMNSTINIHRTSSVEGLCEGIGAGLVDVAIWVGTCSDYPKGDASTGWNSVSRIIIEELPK
MSN (human), sequence (P26038 2-577 limits assumed): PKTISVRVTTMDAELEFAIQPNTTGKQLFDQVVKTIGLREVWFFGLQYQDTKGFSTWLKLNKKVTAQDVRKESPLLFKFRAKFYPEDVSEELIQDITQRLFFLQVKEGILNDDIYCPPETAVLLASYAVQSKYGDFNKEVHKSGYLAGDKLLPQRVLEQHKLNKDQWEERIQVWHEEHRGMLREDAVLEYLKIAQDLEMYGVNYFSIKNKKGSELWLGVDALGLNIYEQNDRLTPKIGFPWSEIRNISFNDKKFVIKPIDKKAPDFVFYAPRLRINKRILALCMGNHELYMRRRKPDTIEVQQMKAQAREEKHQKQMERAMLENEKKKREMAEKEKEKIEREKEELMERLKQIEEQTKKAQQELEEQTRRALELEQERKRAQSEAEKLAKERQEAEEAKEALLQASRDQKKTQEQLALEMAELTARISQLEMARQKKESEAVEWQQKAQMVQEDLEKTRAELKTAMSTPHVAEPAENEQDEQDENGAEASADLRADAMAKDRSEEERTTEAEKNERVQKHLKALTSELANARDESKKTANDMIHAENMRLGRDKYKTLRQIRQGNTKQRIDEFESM
TMEM59, sequence (Q9BXS4 36-323 limits assumed): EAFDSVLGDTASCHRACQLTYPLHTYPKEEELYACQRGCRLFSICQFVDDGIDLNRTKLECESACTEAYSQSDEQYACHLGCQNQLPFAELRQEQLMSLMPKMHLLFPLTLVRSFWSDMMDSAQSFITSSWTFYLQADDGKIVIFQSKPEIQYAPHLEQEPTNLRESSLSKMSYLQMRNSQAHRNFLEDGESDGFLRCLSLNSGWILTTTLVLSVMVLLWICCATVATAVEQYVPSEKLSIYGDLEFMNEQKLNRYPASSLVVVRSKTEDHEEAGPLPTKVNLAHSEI
TAGLN, sequence (Q01995 2-201 limits assumed): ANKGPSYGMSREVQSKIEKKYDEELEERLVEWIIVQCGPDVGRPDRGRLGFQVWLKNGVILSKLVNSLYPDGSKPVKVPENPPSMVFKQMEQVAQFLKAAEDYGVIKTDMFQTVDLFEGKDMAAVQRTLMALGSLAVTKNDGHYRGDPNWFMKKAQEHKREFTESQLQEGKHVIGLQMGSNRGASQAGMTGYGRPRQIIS
SPRR1A (human), sequence (P35321 whole entry): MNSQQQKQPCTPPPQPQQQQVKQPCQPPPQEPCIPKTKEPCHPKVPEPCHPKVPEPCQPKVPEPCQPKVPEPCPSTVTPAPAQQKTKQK
EMD, sequence (P50402 whole entry): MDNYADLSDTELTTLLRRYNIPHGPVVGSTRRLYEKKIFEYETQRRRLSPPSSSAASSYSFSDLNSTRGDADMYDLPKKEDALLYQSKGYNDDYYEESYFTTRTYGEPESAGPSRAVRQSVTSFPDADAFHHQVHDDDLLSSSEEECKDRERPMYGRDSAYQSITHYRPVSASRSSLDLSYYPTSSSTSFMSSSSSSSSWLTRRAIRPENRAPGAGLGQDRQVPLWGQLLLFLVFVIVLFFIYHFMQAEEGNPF
SDF4 (human), sequence (Q9BRK5 37-362 limits assumed): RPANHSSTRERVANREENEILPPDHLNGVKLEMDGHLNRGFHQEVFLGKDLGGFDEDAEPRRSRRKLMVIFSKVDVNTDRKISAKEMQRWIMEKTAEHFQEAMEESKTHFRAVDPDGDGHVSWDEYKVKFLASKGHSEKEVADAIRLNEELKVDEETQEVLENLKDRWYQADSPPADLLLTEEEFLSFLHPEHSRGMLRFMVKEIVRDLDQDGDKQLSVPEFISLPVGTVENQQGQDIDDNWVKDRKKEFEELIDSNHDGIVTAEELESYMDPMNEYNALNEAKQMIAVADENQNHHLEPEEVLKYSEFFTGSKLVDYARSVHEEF
PJA2 (human), sequence (O43164 2-708 limits assumed): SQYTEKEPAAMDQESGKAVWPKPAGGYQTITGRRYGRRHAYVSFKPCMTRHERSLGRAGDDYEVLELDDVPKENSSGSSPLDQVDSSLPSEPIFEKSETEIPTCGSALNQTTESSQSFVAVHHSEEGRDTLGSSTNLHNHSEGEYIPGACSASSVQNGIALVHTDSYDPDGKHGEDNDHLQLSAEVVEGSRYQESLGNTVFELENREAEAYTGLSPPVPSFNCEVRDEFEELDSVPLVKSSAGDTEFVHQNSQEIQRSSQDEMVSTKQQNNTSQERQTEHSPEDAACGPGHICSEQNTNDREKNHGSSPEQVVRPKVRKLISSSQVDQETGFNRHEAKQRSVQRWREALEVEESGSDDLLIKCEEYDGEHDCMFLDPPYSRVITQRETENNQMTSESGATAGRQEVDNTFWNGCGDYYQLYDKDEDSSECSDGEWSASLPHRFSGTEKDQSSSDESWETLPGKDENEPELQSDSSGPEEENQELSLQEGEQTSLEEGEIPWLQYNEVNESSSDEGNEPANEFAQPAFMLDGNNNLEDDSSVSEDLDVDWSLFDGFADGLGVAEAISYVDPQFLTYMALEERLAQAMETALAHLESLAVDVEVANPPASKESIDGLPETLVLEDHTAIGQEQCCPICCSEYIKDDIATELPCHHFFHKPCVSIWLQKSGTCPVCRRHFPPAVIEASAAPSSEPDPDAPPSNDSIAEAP
PSMD4 (human), sequence (P55036 whole entry): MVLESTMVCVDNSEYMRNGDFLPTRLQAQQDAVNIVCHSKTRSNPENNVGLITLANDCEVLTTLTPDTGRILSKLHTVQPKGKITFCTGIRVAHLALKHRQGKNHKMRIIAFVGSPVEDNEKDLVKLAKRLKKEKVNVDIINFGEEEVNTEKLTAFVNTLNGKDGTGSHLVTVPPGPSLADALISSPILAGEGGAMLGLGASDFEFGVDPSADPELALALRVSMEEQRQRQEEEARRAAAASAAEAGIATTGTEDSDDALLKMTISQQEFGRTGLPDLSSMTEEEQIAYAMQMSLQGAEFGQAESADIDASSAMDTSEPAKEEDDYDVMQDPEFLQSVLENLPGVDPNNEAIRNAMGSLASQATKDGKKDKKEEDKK
SLC27A4 (human), sequence (Q6P1M0 whole entry): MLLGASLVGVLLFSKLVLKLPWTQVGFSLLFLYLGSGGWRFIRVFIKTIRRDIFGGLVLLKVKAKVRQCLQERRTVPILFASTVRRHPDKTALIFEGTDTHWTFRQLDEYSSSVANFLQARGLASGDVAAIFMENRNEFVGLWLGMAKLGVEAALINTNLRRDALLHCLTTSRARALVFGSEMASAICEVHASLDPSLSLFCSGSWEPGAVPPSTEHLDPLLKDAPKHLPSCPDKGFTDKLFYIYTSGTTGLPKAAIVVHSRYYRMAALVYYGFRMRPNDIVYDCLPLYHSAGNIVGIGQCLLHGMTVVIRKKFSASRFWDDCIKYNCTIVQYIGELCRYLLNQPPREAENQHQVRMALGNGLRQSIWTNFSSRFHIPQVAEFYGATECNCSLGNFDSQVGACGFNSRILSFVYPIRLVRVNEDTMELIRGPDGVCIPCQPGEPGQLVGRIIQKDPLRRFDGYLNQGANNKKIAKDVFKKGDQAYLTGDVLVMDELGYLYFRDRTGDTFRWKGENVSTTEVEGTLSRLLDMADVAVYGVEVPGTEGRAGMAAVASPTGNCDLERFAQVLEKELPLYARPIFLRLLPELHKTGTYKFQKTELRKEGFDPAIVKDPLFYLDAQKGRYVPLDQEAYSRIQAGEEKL
CDSN, sequence (Q15517 33-529 limits assumed): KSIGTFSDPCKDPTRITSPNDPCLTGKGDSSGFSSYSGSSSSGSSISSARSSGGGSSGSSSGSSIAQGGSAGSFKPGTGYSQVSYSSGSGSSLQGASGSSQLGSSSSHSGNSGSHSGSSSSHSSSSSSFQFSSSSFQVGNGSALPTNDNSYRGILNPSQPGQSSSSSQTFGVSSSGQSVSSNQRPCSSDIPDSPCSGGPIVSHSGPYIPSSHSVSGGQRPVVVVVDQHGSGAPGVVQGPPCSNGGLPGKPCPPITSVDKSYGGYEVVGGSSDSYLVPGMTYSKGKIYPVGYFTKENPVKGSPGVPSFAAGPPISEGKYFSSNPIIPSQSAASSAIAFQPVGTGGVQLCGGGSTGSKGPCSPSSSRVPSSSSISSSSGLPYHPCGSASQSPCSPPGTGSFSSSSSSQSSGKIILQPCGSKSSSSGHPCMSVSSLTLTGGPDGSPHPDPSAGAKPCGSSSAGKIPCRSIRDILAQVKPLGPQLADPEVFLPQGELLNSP
CCT7 (human), sequence (Q99832 45-543 limits assumed): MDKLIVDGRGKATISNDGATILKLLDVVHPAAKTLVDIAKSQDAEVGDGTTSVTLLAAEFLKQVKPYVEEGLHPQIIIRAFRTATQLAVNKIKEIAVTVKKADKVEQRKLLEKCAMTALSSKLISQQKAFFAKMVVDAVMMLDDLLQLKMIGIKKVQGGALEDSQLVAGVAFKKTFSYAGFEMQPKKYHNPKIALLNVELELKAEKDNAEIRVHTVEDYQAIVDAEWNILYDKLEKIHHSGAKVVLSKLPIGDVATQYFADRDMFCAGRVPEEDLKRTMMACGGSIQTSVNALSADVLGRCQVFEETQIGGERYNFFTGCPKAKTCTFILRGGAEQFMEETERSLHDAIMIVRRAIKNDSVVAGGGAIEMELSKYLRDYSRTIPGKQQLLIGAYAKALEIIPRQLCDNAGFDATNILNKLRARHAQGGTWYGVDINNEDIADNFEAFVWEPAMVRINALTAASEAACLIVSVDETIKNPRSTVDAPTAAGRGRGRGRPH
CD70 (human), sequence (P32970 whole entry): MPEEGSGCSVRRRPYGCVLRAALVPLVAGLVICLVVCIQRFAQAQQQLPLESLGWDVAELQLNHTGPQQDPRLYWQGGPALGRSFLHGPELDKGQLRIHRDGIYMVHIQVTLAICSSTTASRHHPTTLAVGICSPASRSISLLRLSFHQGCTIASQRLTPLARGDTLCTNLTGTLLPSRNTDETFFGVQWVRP

Substance: IgG control (Millipore Sigma 12-371) (antibody)
- co-IP mass spectrometry count (RPS4X (human)): 7
- co-IP mass spectrometry count (GAPDH (human)): 6
- co-IP mass spectrometry count (MAGT1 (human)): 0
- co-IP mass spectrometry count (EPRS (human)): 0
- co-IP mass spectrometry count (CCT2 (human)): 0
- co-IP mass spectrometry count (IPO13 (human)): 0
- co-IP mass spectrometry count (RARS (human)): 0
- co-IP mass spectrometry count (GANAB (human)): 0
- co-IP mass spectrometry count (HSPD1 (human)): 2
- co-IP mass spectrometry count (CCT7 (human)): 0
- co-IP mass spectrometry count (GALNT2 (human)): 0
- co-IP mass spectrometry count (PJA2 (human)): 0
- co-IP mass spectrometry count (PSMD4 (human)): 0
- co-IP mass spectrometry count (RPL26 (human)): 4
- co-IP mass spectrometry count (MARS (human)): 0
- co-IP mass spectrometry count (PIGR (human)): 0
- co-IP mass spectrometry count (CD70 (human)): 0
- co-IP mass spectrometry count (RPL32 (human)): 0
- co-IP mass spectrometry count (SDF4 (human)): 0
- co-IP mass spectrometry count (MYO1C (human)): 0
- co-IP mass spectrometry count (ARHGEF2 (human)): 0
- co-IP mass spectrometry count (HADHA (human)): 0
- co-IP mass spectrometry count (SLC27A4 (human)): 0
- co-IP mass spectrometry count (MSN (human)): 0
- co-IP mass spectrometry count (SPRR1A (human)): 0
- co-IP mass spectrometry count (CTHRC1 (human)): 0
- co-IP mass spectrometry count (ZC3HAV1 (human)): 0
- co-IP mass spectrometry count (RPL9 (human)): 0

Substance: N-terminal FLAG tagged B3GNT2 (from UniProt Q9NY97 1-397) (enzyme)
- co-IP mass spectrometry count (CDSN): 5
- co-IP mass spectrometry count (ITGB3): 3
- co-IP mass spectrometry count (TAGLN): 2
- co-IP mass spectrometry count (DNAJA2): 3
- co-IP mass spectrometry count (RPL35): 7
- co-IP mass spectrometry count (MTDH): 0
- co-IP mass spectrometry count (EMD): 2
- co-IP mass spectrometry count (TMEM59): 6
- co-IP mass spectrometry count (PBXIP1): 2
- co-IP mass spectrometry count (RPL19): 8
